38 molecules from PMC314469, “Protein Interaction Networks by Proteome Peptide Scanning” (PLoS Biology, 2004) can be followed below.

T1: amphyphisin SH3 (AMPH_HUMAN), P49418
T1 chain: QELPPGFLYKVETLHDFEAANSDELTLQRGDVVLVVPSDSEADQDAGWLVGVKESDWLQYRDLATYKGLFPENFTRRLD

The target of the first experiment is T1, amphyphisin SH3 (AMPH_HUMAN), P49418. Kind of experiment: SPOT array.
In the case of AKDLLRRPFDLMLV [Q9BZW5 208-221], the normalised SPOT signal, Boehringer light units (BLU); mean over the file's lines of this peptide was determined as 31.3.
Molecule FRRVLLRPSRRVRS [P32745 324-337] returned a normalised SPOT signal, Boehringer light units (BLU); mean over the file's lines of this peptide of 5790.
For FNKYLSRPKRFEVA [P50219 263-276], the normalised SPOT signal, Boehringer light units (BLU); mean over the file's lines of this peptide was 193.
The same measure, in the same setting: the value for GAASISRPTRAVPS [P35568 971-984] was 957.
Regarding FNKYISRPRRVELA [P52945 167-180], the normalised SPOT signal, Boehringer light units (BLU); mean over the file's lines of this peptide is 242.
Still for that read-out and setting: under FNKYLSRPRRVEIA [O43364 164-177] stands 255; under FYRDLRRPFSAPDA [Q9HB63 378-391], 53.3; under FVYNFIRPVKGKVS [Q9NUW7 10-23], 190.
The molecule FTGPPQKPPRLGAQ [Q14289 851-865] displayed a normalised SPOT signal, Boehringer light units (BLU); mean over the file's lines of this peptide of 2710.
Still for that read-out and setting: the value for FNFDIRRPSLEHRQ [O43558 420-433] was 115.
On the same count and under the same terms, the value for FVNEIRRPNGENYA [Q9UBW7 1125-1138] was 23.8.
Molecule FSSFLKRPKSQVSE [P11171 83-96] returned a normalised SPOT signal, Boehringer light units (BLU); mean over the file's lines of this peptide of 37.5.
Molecule GAARLGRPGRSSLP [P34925 3-16] returned a normalised SPOT signal, Boehringer light units (BLU); mean over the file's lines of this peptide of 129.
Consider AILTLPRPVRASLP [Q9NQ75 154-167], for which the normalised SPOT signal, Boehringer light units (BLU); mean over the file's lines of this peptide was 402.
On to FSSVPSKPPMSLEP [Q96E32 219-233], for which the normalised SPOT signal, Boehringer light units (BLU); mean over the file's lines of this peptide stood at 30.1.
Take FVLVPLRPPSPARS [O75055 1510-1524]: the normalised SPOT signal, Boehringer light units (BLU); mean over the file's lines of this peptide stood at 1620.
Same read-out and setting: under FSHLLRRPPPEAPR [O76081 86-99] stands 172.
Still for that read-out and setting: the value for FVSPPNRPFRSKND [Q07954 3693-3706] was 3720.
FPTVPTRPEKGYIW [Q99995 108-121] returned a normalised SPOT signal, Boehringer light units (BLU); mean over the file's lines of this peptide of 562.
The same measure, in the same setting: under FNDSPYKPPVTRSN [Q9H7L2 189-203] stands 64.1; under FSFSLPRPGRRGSR [O00538 575-588], 1090; under FVTELRRPVAVRAK [Q9NW72 376-389], 39.9.
FTDLPKKPPPPEVT [Q96QH2 75-89] gave a normalised SPOT signal, Boehringer light units (BLU); mean over the file's lines of this peptide of 88.
In turn, FSESLKRPWEDDPP [Q9Y384 121-134] came in with a normalised SPOT signal, Boehringer light units (BLU); mean over the file's lines of this peptide of 58.5.
Still for that read-out and setting: under FRRLPTRPRKGGPE [Q9NXF8 292-305] stands 340.
FRGSFRRPDNLSLA [Q9Y4B7 288-301] had a normalised SPOT signal, Boehringer light units (BLU); mean over the file's lines of this peptide of 74.9.
Same read-out and setting: under FVLRPLRPSRRYST [Q14539 22-35] stands 10100.
For the molecule FNFDFRRPGPEPPR [O43559 400-413], the normalised SPOT signal, Boehringer light units (BLU); mean over the file's lines of this peptide worked out at 26.2.
Turning to FNRYLSRPRRVEMA [O43365 212-225], the normalised SPOT signal, Boehringer light units (BLU); mean over the file's lines of this peptide turned out to be 336.
Turning to FYYRPPRPPKGASK [P46527 86-100], the normalised SPOT signal, Boehringer light units (BLU); mean over the file's lines of this peptide was 3820.
Turning to FSHILKRPDRVLLI [P33076 484-497], the normalised SPOT signal, Boehringer light units (BLU); mean over the file's lines of this peptide is 879.
Same read-out and setting: the value for AKINLKRPPTAGSQ [Q9HA08 198-211] was 0; that for FQEFLKRPDHKQDF [Q9C093 551-564] was 32.9.
The same measure, in the same setting: the value for FNQALGRPEKIHNK [Q9UHP3 379-392] was 92.
Same read-out and setting: under FVTELRRPDAVRTK [Q9NQ90 781-794] stands 38.2; under FWQSPKRPPSPIKF [Q9H3T7 733-747], 349; under FTKTIKRPFGVKYN [P17752 389-402], 22.4.
Consider GASLFNRPTKLFEP [O75077 489-502], for which the normalised SPOT signal, Boehringer light units (BLU); mean over the file's lines of this peptide was found to be 59.5.

The target of a further experiment is endophilin SH3 (SH3G2_HUMAN), Q99962. The experiment is described as follows: SPOT array.
With AKDLLRRPFDLMLV [Q9BZW5 208-221], the normalised SPOT signal, Boehringer light units (BLU); mean over the file's lines of this peptide is 71.1.
Same read-out and setting: the value for FRRVLLRPSRRVRS [P32745 324-337] was 889; that for FNKYLSRPKRFEVA [P50219 263-276] was 111; that for GAASISRPTRAVPS [P35568 971-984] was 202.
On the same count and under the same terms, the value for FNKYISRPRRVELA [P52945 167-180] was 385; that for FNKYLSRPRRVEIA [O43364 164-177] was 156; that for FYRDLRRPFSAPDA [Q9HB63 378-391] was 175.
The same measure, in the same setting: under FVYNFIRPVKGKVS [Q9NUW7 10-23] stands 122; under FTGPPQKPPRLGAQ [Q14289 851-865], 76.1.
FNFDIRRPSLEHRQ [O43558 420-433] showed a normalised SPOT signal, Boehringer light units (BLU); mean over the file's lines of this peptide of 3350.
Turning to FVNEIRRPNGENYA [Q9UBW7 1125-1138], the normalised SPOT signal, Boehringer light units (BLU); mean over the file's lines of this peptide worked out at 12.8.
Still for that read-out and setting: under FSSFLKRPKSQVSE [P11171 83-96] stands 51.3.
On the same count and under the same terms, under GAARLGRPGRSSLP [P34925 3-16] stands 129; under AILTLPRPVRASLP [Q9NQ75 154-167], 1390; under FSSVPSKPPMSLEP [Q96E32 219-233], 35.9.
On the same count and under the same terms, under FVLVPLRPPSPARS [O75055 1510-1524] stands 17300; under FSHLLRRPPPEAPR [O76081 86-99], 5220; under FVSPPNRPFRSKND [Q07954 3693-3706], 224.
In turn, FPTVPTRPEKGYIW [Q99995 108-121] showed a normalised SPOT signal, Boehringer light units (BLU); mean over the file's lines of this peptide of 425.
Take FNDSPYKPPVTRSN [Q9H7L2 189-203]: the normalised SPOT signal, Boehringer light units (BLU); mean over the file's lines of this peptide turned out to be 93.
The same measure, in the same setting: the value for FSFSLPRPGRRGSR [O00538 575-588] was 2080.
In turn, FVTELRRPVAVRAK [Q9NW72 376-389] returned a normalised SPOT signal, Boehringer light units (BLU); mean over the file's lines of this peptide of 117.
The same measure, in the same setting: under FTDLPKKPPPPEVT [Q96QH2 75-89] stands 59.2; under FSESLKRPWEDDPP [Q9Y384 121-134], 35.3; under FRRLPTRPRKGGPE [Q9NXF8 292-305], 1540.
FRGSFRRPDNLSLA [Q9Y4B7 288-301] showed a normalised SPOT signal, Boehringer light units (BLU); mean over the file's lines of this peptide of 109.
Still for that read-out and setting: under FVLRPLRPSRRYST [Q14539 22-35] stands 18800; under FNFDFRRPGPEPPR [O43559 400-413], 100.
On the same count and under the same terms, under FNRYLSRPRRVEMA [O43365 212-225] stands 204; under FYYRPPRPPKGASK [P46527 86-100], 4600.
In the case of FSHILKRPDRVLLI [P33076 484-497], the normalised SPOT signal, Boehringer light units (BLU); mean over the file's lines of this peptide was 292.
Same read-out and setting: under AKINLKRPPTAGSQ [Q9HA08 198-211] stands 59.
As for FQEFLKRPDHKQDF [Q9C093 551-564], the normalised SPOT signal, Boehringer light units (BLU); mean over the file's lines of this peptide is 32.9.
The same measure, in the same setting: under FNQALGRPEKIHNK [Q9UHP3 379-392] stands 100; under FVTELRRPDAVRTK [Q9NQ90 781-794], 43.1.
For FWQSPKRPPSPIKF [Q9H3T7 733-747], the normalised SPOT signal, Boehringer light units (BLU); mean over the file's lines of this peptide was determined as 12400.
For the molecule FTKTIKRPFGVKYN [P17752 389-402], the normalised SPOT signal, Boehringer light units (BLU); mean over the file's lines of this peptide is 61.9.
GASLFNRPTKLFEP [O75077 489-502] gave a normalised SPOT signal, Boehringer light units (BLU); mean over the file's lines of this peptide of 66.2.
